# Measured values reported in PMC7041945, “Misfolded proteins bind and activate death receptor 5 to trigger apoptosis during unresolved endoplasmic reticulum stress” (eLife, 2020).
# Experiments:
# Format in all cases: cell-based, Homo sapiens
# HCT116 cells [1] = test: Trypan blue staining, automated cell counting; design: key to Trypan blue- / Trypan blue+ / avg Trypan blue- / avg Trypan blue+: % of cells (Trypan blue positive or negative); conditions: for Dead concentration / Live concentration / Total Concentration / Viability (%): hct mpz, BF
# Protocol: Cells seeded in a 6-well plate were transfected with the specified plasmid for 24 hr and harvested via trypsinization in complete media and ultimately resuspended in 400 μl of media to obtain a concentration of 1.0–3.0 × 10^6 cells/ml. The cell suspension was then mixed 1:1 with 0.4% Trypan blue (Sigma-Aldrich) and incubated at 37°C for 30 min. The percentage of cells staining positive for was then quantified using the Countess II FL Automated Cell Counter (ThermoFisher, catalog # AMQAF1000) default brightfield settings with disposable slides.
# HCT116 cells [2] = test: Annexin V (and SytoxBlue) flow cytometry for apoptosis; conditions: for Mean ± SEM (Prism T-tests, Annexin V for MPZ-GFP): N=3, values agree with avg Annexin V+; for avg Annexin V+ / avg Annexin V-: mean of 3 replicates; for AnnexinV+ (Statistic, single cells) / AnnexinV- (Statistic, single cells) / GFP+ (Statistic, single cells) / GFP- (Statistic, single cells) / Q1: APC-A- , DAPI-A+ (Statistic, single cells) / Q2: APC-A+ , DAPI-A+ (Statistic, single cells) / Q3: APC-A+ , DAPI-A- (Statistic, single cells) / Q4: APC-A- , DAPI-A- (Statistic, single cells) / SytoxBlue+ (Statistic, single cells) / SytoxBlue- (Statistic, single cells) / dead cells (Statistic) / FITC-A+ (Statistic, dead cells) / FITC-A- (Statistic, dead cells): 2018-01-17 MPZ; for AnnexinV+ (Statistic, single cells): gate all cells/Single Cells/AnnexinV+; for AnnexinV- (Statistic, single cells): gate all cells/Single Cells/AnnexinV-; for GFP+ (Statistic, single cells): gate all cells/Single Cells/GFP+; for GFP- (Statistic, single cells): gate all cells/Single Cells/GFP-; for Q1: APC-A- , DAPI-A+ (Statistic, single cells): gate all cells/Single Cells/Q1; for Q2: APC-A+ , DAPI-A+ (Statistic, single cells): gate all cells/Single Cells/Q2; for Q3: APC-A+ , DAPI-A- (Statistic, single cells): gate all cells/Single Cells/Q3; for Q4: APC-A- , DAPI-A- (Statistic, single cells): gate all cells/Single Cells/Q4; for SytoxBlue+ (Statistic, single cells): gate all cells/Single Cells/SytoxBlue+; for SytoxBlue- (Statistic, single cells): gate all cells/Single Cells/SytoxBlue-; for dead cells (Statistic): gate dead cells of all events; for FITC-A+ (Statistic, dead cells): gate dead cells/Single Cells/FITC-A+; for FITC-A- (Statistic, dead cells): gate dead cells/Single Cells/FITC-A-
# Protocol: Cells seeded in a 6-well plate were transfected with the specified plasmid for 24 hr and harvested via trypsinization in complete media to allow a 30 min recovery at 37°C. The samples were then centrifuged at 500xg for 5 min and resuspended In 150 μl of a 1:20 dilution of Annexin V-AlexaFluor 647 conjugate (Thermo Scientific #A23204). Samples were transferred to a 96-well U-bottom plate and incubated in the dark for 15 min at RT. The distribution of apoptotic cells was determined by flow cytometry on a BD LSR II.
# [3] = test system: caspase 8 in HCT116 fractions; test: Caspase 8 activity of subcellular (iodixanol gradient) fractions; conditions: cells expressing MPZ-GFP; first and second ERGIC-associated fractions
# Protocol: This subcellular fractionation protocol was adapted from [Xu et al. (2015)].
# Cells transfected with MPZ-GFP were harvested from a 15 cm dish as described in the Size Exclusion Chromatography section above. The cell pellet was resuspended in 400 μl of homogenization buffer (10 mM triethanolamine-acetic acid, pH 7.4, 0.25 M sucrose, 1 mM sodium EDTA, protease inhibitor cocktail (Roche)) and lysed via mechanical shearing through a 25-gauge needle on a 1 ml syringe with 13 passes. (Note on protease inhibitor: 4x protease inhibitor was used to lyse samples used for Western blotting to minimize degradation of proteins, while 1x protease inhibitor was used in sample lysis for caspase glo 8 assay so that excess inhibitor would not interfere with cleavage of luminescent substrate.) Homogenized sample was then centrifuged at 2000xg for 15 min at 4°C to remove unlysed cells and the nuclear fraction. […]
# Fractions from samples lysed with 4x protease inhibitor were subjected to TCA precipitation to concentrate protein content for immunoblotting. Fractions from samples lysed with 1x protease inhibitor were used for the caspase glo 8 assay (10 μl of each fraction + 10 μl of the caspase glo 8 reagent (Promega #PRG8200) incubated for 45 min at RT prior to measuring luminescence).
# [4] = biological replicate 1 (05.22.2019)
# [5] = biological replicate 2 (05.24.2019)
# [6] = biological replicate 3 (05.24.2019)
# [7] = siRNA DR5 (siDR5), 2017-01-17 Replicate
# [8] = siRNA DR5 (siDR5), 2018-06-21 Rep 1
# [9] = siRNA DR5 (siDR5), 2018-06-21 Rep 2
# [10] = siRNA scrambled, 2017-01-17 Replicate
# [11] = siRNA scrambled, Tg sample with empty construct
# [12] = siRNA scrambled, 2018-06-21 Rep 1
# [13] = siRNA scrambled, 2018-06-21 Rep 2
molecule,measurement,setting,value
"MPZ-GFP: myelin protein zero with a C-terminal monomeric EGFP, expressed from plasmid (protein, left off: monomeric EGFP, C-terminal, kept, myelin protein zero with a C-terminal monomeric EGFP, expressed from plasmid) IVVYTDREVHGAVGSRVTLHCSFWSSEWVSDDISFTWRYQPEGGRDAISIFHYAKGQPYIDEVGTFKERIQWVGDPRWKDGSIVIHNLDYSDNGTFTCDVKNPPDIVGKTSQVTLYVFEKVPTRYGVVLGAVIGGVLGVVLLLLLLFYVVRYCWLRRQAALQRRLSAMEKGKLHKPGKDASKRGRQTPVLYAMLDHSRSTKAVSEKKAKGLGESRKDKK",Trypan blue+,"HCT116 cells [1]; MPZ-GFP, Rep 1",47.8261
same,Trypan blue-,"HCT116 cells [1]; MPZ-GFP, Rep 1",52.1739
same,Trypan blue+,"HCT116 cells [1]; MPZ-GFP, Rep 2",36.3817
same,Trypan blue-,"HCT116 cells [1]; MPZ-GFP, Rep 2",63.6183
same,Trypan blue+,"HCT116 cells [1]; MPZ-GFP, Rep 3",29.5129
same,Trypan blue-,"HCT116 cells [1]; MPZ-GFP, Rep 3",70.4871
same,avg Trypan blue+,"HCT116 cells [1]; MPZ-GFP, avg of Rep 1-3",37.9069
same,avg Trypan blue-,"HCT116 cells [1]; MPZ-GFP, avg of Rep 1-3",62.0931
same,Dead concentration,HCT116 cells [1]; [4],3.87E+05
same,Live concentration,HCT116 cells [1]; [4],4.22E+05
same,Total Concentration,HCT116 cells [1]; [4],8.09E+05
same,Viability (%),HCT116 cells [1]; [4],52.1739%
same,Dead concentration,HCT116 cells [1]; [5],1.07E+06
same,Live concentration,HCT116 cells [1]; [5],1.88E+06
same,Total Concentration,HCT116 cells [1]; [5],2.95E+06
same,Viability (%),HCT116 cells [1]; [5],63.6183%
same,Dead concentration,HCT116 cells [1]; [6],1.21E+06
same,Live concentration,HCT116 cells [1]; [6],2.89E+06
same,Total Concentration,HCT116 cells [1]; [6],4.09E+06
same,Viability (%),HCT116 cells [1]; [6],70.4871%
same,Difference between means,HCT116 cells [2]; MPZ-GFP siDR5 vs. MPZ-GFP,-18 ± 5.2
same,Mean ± SEM (Fig 1S2D),"HCT116 cells [2]; MPZ-GFP, mean ± SEM, n=3","37.91 ± 5.341, n=3"
same,"Mean ± SEM (Prism T-tests, Annexin V for MPZ-GFP)","HCT116 cells [2]; no siDR5, mean ± SEM",33 ± 4.7 N=3
same,"Mean ± SEM (Prism T-tests, Annexin V for MPZ-GFP)","HCT116 cells [2]; siDR5, mean ± SEM",15 ± 2.3 N=3
same,Annexin V+,HCT116 cells [2]; [7],10.4
same,Annexin V-,HCT116 cells [2]; [7],89.6
same,Annexin V+,HCT116 cells [2]; [8],17
same,Annexin V-,HCT116 cells [2]; [8],83
same,Annexin V+,HCT116 cells [2]; [9],17.8
same,Annexin V-,HCT116 cells [2]; [9],82.2
same,avg Annexin V+,HCT116 cells [2]; siRNA DR5 (siDR5),15.0667
same,avg Annexin V-,HCT116 cells [2]; siRNA DR5 (siDR5),84.9333
same,"AnnexinV+ (Statistic, single cells)",HCT116 cells [2]; siRNA DR5,10.4
same,"AnnexinV- (Statistic, single cells)",HCT116 cells [2]; siRNA DR5,89.6
same,"GFP+ (Statistic, single cells)",HCT116 cells [2]; siRNA DR5,40.8
same,"GFP- (Statistic, single cells)",HCT116 cells [2]; siRNA DR5,59.2
same,"Q1: APC-A- , DAPI-A+ (Statistic, single cells)",HCT116 cells [2]; siRNA DR5,1.26
same,"Q2: APC-A+ , DAPI-A+ (Statistic, single cells)",HCT116 cells [2]; siRNA DR5,8.07
same,"Q3: APC-A+ , DAPI-A- (Statistic, single cells)",HCT116 cells [2]; siRNA DR5,1.36
same,"Q4: APC-A- , DAPI-A- (Statistic, single cells)",HCT116 cells [2]; siRNA DR5,89.3
same,"SytoxBlue+ (Statistic, single cells)",HCT116 cells [2]; siRNA DR5,9.1
same,"SytoxBlue- (Statistic, single cells)",HCT116 cells [2]; siRNA DR5,90.9
same,dead cells (Statistic),HCT116 cells [2]; siRNA DR5,6.03
same,"FITC-A+ (Statistic, dead cells)",HCT116 cells [2]; siRNA DR5,43.4
same,"FITC-A- (Statistic, dead cells)",HCT116 cells [2]; siRNA DR5,56.6
same,"AnnexinV+ (Statistic, single cells)",HCT116 cells [2]; siRNA TRAIL,20.8
same,"AnnexinV- (Statistic, single cells)",HCT116 cells [2]; siRNA TRAIL,79.2
same,"GFP+ (Statistic, single cells)",HCT116 cells [2]; siRNA TRAIL,47.9
same,"GFP- (Statistic, single cells)",HCT116 cells [2]; siRNA TRAIL,52.1
same,"Q1: APC-A- , DAPI-A+ (Statistic, single cells)",HCT116 cells [2]; siRNA TRAIL,2.56
same,"Q2: APC-A+ , DAPI-A+ (Statistic, single cells)",HCT116 cells [2]; siRNA TRAIL,16.8
same,"Q3: APC-A+ , DAPI-A- (Statistic, single cells)",HCT116 cells [2]; siRNA TRAIL,2.29
same,"Q4: APC-A- , DAPI-A- (Statistic, single cells)",HCT116 cells [2]; siRNA TRAIL,78.3
same,"SytoxBlue+ (Statistic, single cells)",HCT116 cells [2]; siRNA TRAIL,18.9
same,"SytoxBlue- (Statistic, single cells)",HCT116 cells [2]; siRNA TRAIL,81.1
same,dead cells (Statistic),HCT116 cells [2]; siRNA TRAIL,10.4
same,"FITC-A+ (Statistic, dead cells)",HCT116 cells [2]; siRNA TRAIL,43.4
same,"FITC-A- (Statistic, dead cells)",HCT116 cells [2]; siRNA TRAIL,56.6
same,Annexin V+,HCT116 cells [2]; [10],41.8
same,Annexin V-,HCT116 cells [2]; [10],58.2
same,"AnnexinV+ (Statistic, single cells)",HCT116 cells [2]; [11],41.8
same,"AnnexinV- (Statistic, single cells)",HCT116 cells [2]; [11],58.2
same,"GFP+ (Statistic, single cells)",HCT116 cells [2]; [11],60.1
same,"GFP- (Statistic, single cells)",HCT116 cells [2]; [11],39.9
same,"Q1: APC-A- , DAPI-A+ (Statistic, single cells)",HCT116 cells [2]; [11],10.7
same,"Q2: APC-A+ , DAPI-A+ (Statistic, single cells)",HCT116 cells [2]; [11],31.7
same,"Q3: APC-A+ , DAPI-A- (Statistic, single cells)",HCT116 cells [2]; [11],8.04
same,"Q4: APC-A- , DAPI-A- (Statistic, single cells)",HCT116 cells [2]; [11],49.5
same,"SytoxBlue+ (Statistic, single cells)",HCT116 cells [2]; [11],40
same,"SytoxBlue- (Statistic, single cells)",HCT116 cells [2]; [11],60
same,dead cells (Statistic),HCT116 cells [2]; [11],22
same,"FITC-A+ (Statistic, dead cells)",HCT116 cells [2]; [11],37.6
same,"FITC-A- (Statistic, dead cells)",HCT116 cells [2]; [11],62.4
same,Annexin V+,HCT116 cells [2]; [12],25.8
same,Annexin V-,HCT116 cells [2]; [12],74.2
same,Annexin V+,HCT116 cells [2]; [13],32
same,Annexin V-,HCT116 cells [2]; [13],68
same,avg Annexin V+,HCT116 cells [2]; siRNA scrambled,33.2
same,avg Annexin V-,HCT116 cells [2]; siRNA scrambled,66.8
same,caspase 8 activity of ERGIC-associated fractions,[3],harbored the majority of the caspase 8 activity in the cell lysate
